PMC8333309, “Mechanism of LolCDE as a molecular extruder of bacterial triacylated lipoproteins” (Nature Communications, 2021)

Substrate: Nc1ncnc2c1ncn2[C@@H]1O[C@H](COP(=O)(O)OP(=O)(O)OP(=O)(O)O)[C@@H](O)[C@H]1O
Assay: colorimetric phosphate-release ATPase assay
Type: biochemical, Escherichia coli
Details: LolCDE in POPG nanodiscs, MgCl2, 25 mM Tris pH 8, 150 mM NaCl, 37 °C, basal activity, no lipoprotein added

B1: LolCDE (Escherichia coli K-12) (protein)
chain: MNKILLQCDNLCKRYQEGSVQTDVLHNVSFSVGEGEMMAIVGSSGSGKSTLLHLLGGLDTPTSGDVIFNGQPMSKLSSAAKAELRNQKLGFIYQFHHLLPDFTALENVAMPLLIGKKKPAEINSRALEMLKAVGLDHRANHRPSELSGGERQRVAIARALVNNPRLVLADEPTGNLDARNADSIFQLLGELNRLQGTAFLVVTHDLQLAKRMSRQLEMRDGRLTAELSLMGAE
notes: co-expressed in E. coli BL21(DE3); purified in DDM, reconstituted into MSP1D1/POPG nanodiscs; co-purifies with lipoprotein; with Lipoprotein-releasing system transmembrane protein LolC; Lipoprotein-releasing system transmembrane protein LolE
Km: 190 ± 50 µM
